± gives the half width of the 95% confidence interval.
Experiments:
[1] = folding stability dG unfold from trypsin proteolysis; higher = more stable
Method in brief: (§1)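 Designed mini-proteins (under 80 residues, no cysteine) in a PA-tagged cDNA display construct were digested with trypsin and chymotrypsin. Each protease was used at 11 concentrations (threefold dilutions) plus a no-protease condition, followed by sequencing. K50 was inferred by Bayesian fitting of sequencing counts, and unfolding free energy was derived against a sequence-predicted unfolded-state K50 and a shared folded-state K50, per protease or combined. Only designs with AlphaFold2 dimer inter-PAE above 15 were kept.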

[2] = folding stability dG unfold from chymotrypsin proteolysis; higher = more stable
Method in brief: as §1

[3] = folding stability dG unfold (combined trypsin and chymotrypsin); higher = more stable
Method in brief: as §1

Sequence	folding stability dG unfold [1]	folding stability dG unfold [2]	folding stability dG unfold [3]
SAGGSAGGSAGGSGPPKLRLLRRVEVVYDGLVLPPNFPLPPSAPPNLKVFVSLVTLPEGSAGGSAGGSAGGS [r4_436_TrMRF]	3.11 ± 0.091 kcal/mol	1.83 ± 0.25 kcal/mol	2.35 ± 0.43 kcal/mol
SAGGSAGGEVEIEVTEEEEVPGLPDQEIVTKAKLPDGKTVTIKRTVDPKTGKVSVSFSVIEPPLSAGGSAGG [r6_337_JUSTAS]	0.44 ± 0.19 kcal/mol	0.355 ± 0.2 kcal/mol	0.363 ± 0.24 kcal/mol
SAGGSAGGSAGGPKVIEITNKDGSTFRLVEVDGELYLYNEKTGKVVKLPPGAKITIKKPSAGGSAGGSAGGS [r10_637_TrROS_Hall]	1.39 ± 0.033 kcal/mol	2.65 ± 0.031 kcal/mol	2.34 ± 0.059 kcal/mol
SAGGSAGGSAGGAPPPPVKVKVVEIEEEGGERRIRVENEDTGEVVELRVPKGAEVLEELSAGGSAGGSAGGS [r10_1038_TrROS_Hall]	1.32 ± 0.048 kcal/mol	1.37 ± 0.055 kcal/mol	1.23 ± 0.16 kcal/mol
SAGGTPVVVPATITVPVPFGAPARVTIFTPEDGHVLALIELPDGAVLVATFDPTTGELHVAPYADAASAGGS [r16_735_TrMRF]	1.19 ± 0.061 kcal/mol	2.78 ± 0.06 kcal/mol	2.23 ± 0.14 kcal/mol
SAGGSAGGSAKITIELDGITEVEFDEETGELYLRIEVDGKLYEIRITEDGTIEIREVPLEDSAGGSAGGSAG [r3_62_TrROS_Hall]	1.86 ± 0.097 kcal/mol	3.63 ± 0.11 kcal/mol	3.13 ± 0.17 kcal/mol
SAGGSAGGSAGGSPLLDFPEPVTTLEETTVTVYFDTNDFTVTLNVTTEVTGDVKRPTVVGSAGGSAGGSAGG [r7_735_JUSTAS]	1.1 ± 0.044 kcal/mol	0.464 ± 0.051 kcal/mol	0.788 ± 0.11 kcal/mol
SAGGSAGGSGDGDYKNDPNGEQERKPKPPPVPPILVFKVELDIDANGNLDLSPDLGWFPPDAISAGGSAGGS [r12_1027_TrROS]	1.55 ± 0.13 kcal/mol	1.03 ± 0.093 kcal/mol	1.42 ± 0.14 kcal/mol
SAGGSAGGSMEEIIEEIKKKVPKDKYAEIEIEVPFPDGSKKKFKIKFYPETNEFEVEELEEIPSAGGSAGGS [r12_305_TrMRF]	3.12 ± 0.26 kcal/mol	4.12 ± 0.23 kcal/mol	3.88 ± 0.24 kcal/mol
SAGGGHMMPNITVDVEEEVFTLPDGSILTRTTVTVTLPNGKKTTVETEYFYDTKTGTVSSKVVKVEASAGGS [r16_166_JUSTAS]	2.72 ± 0.11 kcal/mol	3.45 ± 0.082 kcal/mol	3.17 ± 0.1 kcal/mol
SAGGSAGGSMRFPPGQKIEIEEWKHNPNGGNYQVSIRFKDGKKKTFTSPEDIDRLIKAGHVKISAGGSAGGS [r12_455_TrROS]	-0.0362 ± 0.26 kcal/mol	1.33 ± 0.19 kcal/mol	0.822 ± 0.21 kcal/mol
MEEEEKKKAETPEIPEEVAREKALEVARELGLEEIEEIEVLSASPEGYVTVRITLPTGGEVEITIPISELES [r1_435_JUSTAS]	2.01 ± 0.13 kcal/mol	2.76 ± 0.08 kcal/mol	2.54 ± 0.18 kcal/mol
SAGGSAGGSAGGPGWRTIEFWIPVDDFLDEIKLPPGITPIRIIKPNPNGYVRIMIIYPYSAGGSAGGSAGGS [r10_352_TrROS]	2.53 ± 0.1 kcal/mol	3.05 ± 0.059 kcal/mol	2.89 ± 0.14 kcal/mol
SADRIKINVMTHQSPDGRPYYMVSIRIPGNGKEIMGPIDSPEDAEEQAKEIADKLEKEGIPIEVEIYPMSAG [r14_263_TrROS]	2.13 ± 0.066 kcal/mol	1.82 ± 0.09 kcal/mol	1.94 ± 0.17 kcal/mol
MSEEELRELEERLAAPGPVEVRVEVEVREEEGDEPVFVFRVRYYRPEPGEELGEEEIVVPEEELEELLRELS [r1_415_TrMRF]	1.34 ± 0.065 kcal/mol	2.31 ± 0.086 kcal/mol	1.93 ± 0.15 kcal/mol
SAGGSAGGAPPDLKVTVKPTPGPGTGQRYTVVVELDEGGVLPFPFSFASPSEVEKAAKAIAALLSAGGSAGG [r6_996_TrMRF]	1.02 ± 0.056 kcal/mol	1.57 ± 0.14 kcal/mol	1.31 ± 0.14 kcal/mol
SAGGSAMKKIKIEVEKKGDEYIVRIKIKNPDGKIEEIEIKLKDEEEAKKLAEELLKEGKIDEIELESAGGSA [r15_575_TrROS_Hall]	2.7 ± 0.18 kcal/mol	2.29 ± 0.077 kcal/mol	2.57 ± 0.18 kcal/mol
SAGGSAKVIRVKSLEEALKLAEEAKKAGLEVEIKLLPDGSVLITVKPKPKPKVKKVEKKVKLPEGKSAGGSA [r15_761_TrROS_Hall]	0.507 ± 0.074 kcal/mol	1.96 ± 0.077 kcal/mol	1.36 ± 0.15 kcal/mol
SAGGGSTSTSTSTSTDPATGATTTTTTTTVPTPDGSGTVTTTTTTVPGAAPDTDTAPVTTTTTTTPTPSAGG [r13_715_JUSTAS]	2.49 ± 0.1 kcal/mol	2.14 ± 0.086 kcal/mol	2.32 ± 0.21 kcal/mol
SAGGMKEITLPNGVKITEVIEKDGYYYIKIYNKKTGKVYEIKVKKGEKIEIKFPKGSTVTKIEIVKKSAGGS [r16_123_TrROS_Hall]	1.7 ± 0.04 kcal/mol	3.24 ± 0.066 kcal/mol	2.8 ± 0.095 kcal/mol
SAGGSAGGSEEREYVEVEFEFLARLEDGSLLVTRVRLLLPAEPAELRPEVRSEVLPLAPGEELSAGGSAGGS [r12_811_TrMRF]	1.48 ± 0.071 kcal/mol	2.7 ± 0.063 kcal/mol	2.22 ± 0.16 kcal/mol

Sequence	folding stability dG unfold [1]	folding stability dG unfold [2]	folding stability dG unfold [3]
SAGGSASAPVPTSVSVSVSSDPASGLTTIPTTVTYNGKTFPMSVTTTPSGTVVTKVGGSTFTVPAASAGGSA [r15_507_JUSTAS]	0.0583 ± 0.075 kcal/mol	-0.286 ± 0.11 kcal/mol	-0.0606 ± 0.077 kcal/mol
SAGGSAGGSAGGMREVIRRPEASGEVTVEPLPEDERRPVDFGSDGVVLWREGDEVVVEPSAGGSAGGSAGGS [r10_817_JUSTAS]	0.00105 ± 0.087 kcal/mol	0.72 ± 0.043 kcal/mol	0.562 ± 0.08 kcal/mol
SAGGSAGGSAGGPEVTITLPPPEKVKVEIVEIEVEGGKVRIRVRNENGEELTFTVPLEDLSAGGSAGGSAGG [r7_829_TrROS_Hall]	0.667 ± 0.18 kcal/mol	1.59 ± 0.35 kcal/mol	1.51 ± 0.26 kcal/mol
SAGGSAGGSAGDIPAIPKVIFIPYPIEKIEVFEDSVVVRVIHPDGGSETIVFPDRALILGSAGGSAGGSAGG [r11_957_TrMRF]	1.6 ± 0.042 kcal/mol	1.47 ± 0.03 kcal/mol	1.53 ± 0.11 kcal/mol
SAGGWEIVGSITIEHPNRPIIFPVFRDPEEGNVWVSIYRMDPENGKWQPIGVVPFPKGDAEDALDDISAGGS [r8_423_TrROS]	1.03 ± 0.054 kcal/mol	1.86 ± 0.11 kcal/mol	1.53 ± 0.16 kcal/mol
SAGSMRTRKYEVERGEDEIVFPLPDGKVLRLPPDVGATVEVEYDPDGPPVRVTVRFPDGADYVLPYEELSAG [r5_45_JUSTAS]	-0.531 ± 0.45 kcal/mol	1.11 ± 0.15 kcal/mol	0.69 ± 0.15 kcal/mol
SAGGEPPPVRVSFSVEEVTVGAGPVFVRRVVTYDPAEGRVSEFVEVFERGRGGLLGRSSRTVPAEELASAGG [r13_772_TrMRF]	4.08 ± 0.15 kcal/mol	4.7 ± 0.13 kcal/mol	4.44 ± 0.16 kcal/mol
SMKPGDVKVIEIEVEYPWPPGDPEKAKEKVRDLVNSIMQEHGYDVDIPVEIEPRDGRYRVEVPIIIRPPNSA [r9_889_TrROS]	0.0547 ± 0.069 kcal/mol	-0.771 ± 0.36 kcal/mol	-0.409 ± 0.25 kcal/mol
SAGMVRIERDGDELLIEFEFPEDEPEAVRALIEAIESLGLEVVEAEIEAEPGEGDLRRVRLRFKIKPLESAG [r5_739_TrMRF]	3.95 ± 0.22 kcal/mol	4.58 ± 0.083 kcal/mol	4.39 ± 0.15 kcal/mol
SAGGSAGGSAGGNWVTIWIPFKMTHYRPDPDGKMYPHKHEMPRPITIPPGQATEDALDKISAGGSAGGSAGG [r7_777_TrROS]	0.165 ± 0.12 kcal/mol	0.762 ± 0.14 kcal/mol	0.595 ± 0.11 kcal/mol
SAGGSAGGSAMTFKSPEEAKKAAEELEKKTGYKIKITKIEVNEDGEKTVKIEILPPGEKLKSAGGSAGGSAG [r3_59_TrROS_Hall]	-0.238 ± 0.092 kcal/mol	0.544 ± 0.12 kcal/mol	0.284 ± 0.1 kcal/mol
SAGGSAGGSAGGDIFIPPNGKLVVIENLPSIEEALEILKNFPNLKPFIDPKTKKIIVPVSAGGSAGGSAGGS [r10_792_TrMRF]	-0.145 ± 0.075 kcal/mol	-0.338 ± 0.045 kcal/mol	-0.216 ± 0.099 kcal/mol
SAGGKVKIIVFNKKTGEKIEIDLSKLKPGDIIKLPNGYYKIIDKKTKKIKVIKAKSIEELKKAIKKLSSAGG [r13_962_TrROS_Hall]	2.07 ± 0.15 kcal/mol	2.21 ± 0.17 kcal/mol	2.01 ± 0.33 kcal/mol
SAGSATVTYDPDTNTVTVTLEGPDTTFTISFPNGEKLEVKATVKPLPDGSYKVLLEVYYPDGSKETFELSAG [r14_675_TrMRF]	4.13 ± 0.2 kcal/mol	5.16 ± 0.3 kcal/mol	> 6 kcal/mol
SAGGSAGGSAPTLELTVTLPDGLRVTVRYDLETDEVTIEVRPLPAPPPPELSEEERKKLAEESAGGSAGGSA [r18_236_TrROS_Hall]	1.24 ± 0.056 kcal/mol	2.25 ± 0.2 kcal/mol	1.98 ± 0.12 kcal/mol
SAGELELELELEFELEDGYRVEVRLRLRVRPDGSVRMELEVRIEPLPPPPPVRVVVVREDDPEALRALSAGG [r19_12_TrROS_Hall]	2.73 ± 0.1 kcal/mol	4.49 ± 0.19 kcal/mol	3.6 ± 0.61 kcal/mol
SAGGSAGGSAGGSWLEFTFIDPGYGWIISTMKIEINPNGNLNMDMEMVPLKPADDPEDASAGGSAGGSAGGS [r4_178_TrROS]	2.38 ± 0.13 kcal/mol	3.32 ± 0.099 kcal/mol	2.9 ± 0.16 kcal/mol
SAGGSAGGSSMTITVTDLVTGEPGEIPEELKAELAAEAEESGSAVTFEITTPDGKKYRAEITPSAGGSAGGS [r12_41_JUSTAS]	0.928 ± 0.029 kcal/mol	1.13 ± 0.088 kcal/mol	1.1 ± 0.1 kcal/mol
SAGGSAFKGMPPEQVKRVIEIDHPNGKDIYIVRYKGPGHMMIFPPKEGKPIYIPMPLDEIKEFLLSSAGGSA [r15_810_TrROS]	0.337 ± 0.054 kcal/mol	0.672 ± 0.13 kcal/mol	0.548 ± 0.094 kcal/mol
SFKLPPGQEIKVKIFILFVDPGDGRMYFIKIEYEITIKPDDDGNLDLDIEPTNIEVVGPMPADEAKEFFKSA [r9_423_TrROS]	2.47 ± 0.086 kcal/mol	2.54 ± 0.16 kcal/mol	2.34 ± 0.25 kcal/mol
SAGGKTIWIFFPPDNPEEFLEELAQLPNVTDVEVWRHNDYYMIEIRLEGLPIEIHYNPEGYYMIEIELSAGG [r13_907_TrROS]	2.39 ± 0.14 kcal/mol	3.71 ± 0.074 kcal/mol	3.48 ± 0.16 kcal/mol
